Measurements reported in article PMC4888458.

B1: ALIS5: N181Q (protein)
parent chain: MSSTAASSTVGGGGSSEISGVKKTSKRPKYSRFTQQELPACKPILTPRWVILTFLVAGVVFIPLGVICLFASQGVVEIVDRYDTDCIPTSSRNNMVAYIQGEGDKICKRTITVTKAMKHPVYVYYQLENFYQNHRRYVKSRNDAQLRSPKEEHDVKTCAPEDNVGGEPIVPCGLVAWSLFNDTYSFSRNSQQLLVNKKGISWKSDRENKFGKNVFPKNFQKGAPIGGGTLNISKPLSEQEDLIVWMRTAALPTFRKLYGKIETDLHAGDTITVLLQNNYNTYSFNGQKKLVLSTTSWLGGRNDFLGIAYLTVGSICLFLAVTFAVLYLVKPRQLGDPSYLSWNRSAGGLQ
B2: ALIS5: N231Q/N181Q (protein)
parent chain: B1 parent chain

Tests used:
[1] = confocal microscopy of GFP–ALA2 in tobacco epidermal cells; settings: glycan lost; control: untagged wild-type ALIS5 with GFP–ALA2
[2] = NBD-PS uptake in yeast, flow cytometry; settings: glycan lost; control: wild-type ALIS5 with ALA2

Protein | localisation_or_trafficking [1] | other: transport activity [2]
B1 | abolishes | abolishes
B2 | abolishes | abolishes
